Measured values as given in patent US20260115302A1 (XILIO DEVELOPMENT, published 2026).

Molecular target: T1, CD25-Fc (UniProt P01589 22-240)
T1 construct: Analyte flowed over the immobilised constructs in SPR (16, 8, 4, 2, 1 nM); also called IL-2Ralpha-Fc; not shown: Fc part of the reagent
T1 sequence (looked up): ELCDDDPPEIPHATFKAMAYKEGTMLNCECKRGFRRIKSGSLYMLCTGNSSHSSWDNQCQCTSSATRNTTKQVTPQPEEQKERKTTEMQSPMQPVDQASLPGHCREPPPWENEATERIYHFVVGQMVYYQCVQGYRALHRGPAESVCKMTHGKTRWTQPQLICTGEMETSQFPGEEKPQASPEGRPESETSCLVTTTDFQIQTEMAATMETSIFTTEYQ
Assay: SPR (Reichert 4Channel, 25 C): MMP-activated construct immobilised on the chip by amine coupling, CD25-Fc flowed over as analyte

- binding result: no binding
B1: AK168 after protease cleavage (Fc fusion)
chain: LYHPSGPAPTSSSTKKTQLQLEHLLLDLQMILNGINNYKNPKLTAMLTAKFAMPKKATELKHLQCLEEALKPLEEVLNLAQSKNFHLRPRDLISNINVIVLELKGSETTFMCEYADETATIVEFLNRWITFAQSIISTLT
notes: The fragments present on the SPR chip are not described
